From patent publication EP2500357A2 (Abbott Laboratories, dated 2012)
Read-outs that look alike come from different tables or passages of the source. One block for each binder: values may come before it.

How the values were obtained:
Assay in all cases: cell-based or functional assay
recombinant human IL-1α [1] = target: T1, recombinant human IL-1α (human, UniProt P01583 113-271)
T1 sequence (looked up): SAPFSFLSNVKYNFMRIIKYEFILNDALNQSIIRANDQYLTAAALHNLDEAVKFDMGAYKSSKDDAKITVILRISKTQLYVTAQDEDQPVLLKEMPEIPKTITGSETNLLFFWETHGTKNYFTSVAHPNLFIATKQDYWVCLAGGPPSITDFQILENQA

recombinant human IL-1β [2] = target: T2, recombinant human IL-1β (human, UniProt P01584 117-269)
recombinant human IL-1α [3] = target: T1, recombinant human IL-1α; remark: listed apart in the source
recombinant human IL-1β [4] = target: T2, recombinant human IL-1β; remark: listed apart in the source
recombinant human IL-1α [5] = target: T1, recombinant human IL-1α; remark: listed apart in the source
recombinant human IL-1α [6] = target: T1, recombinant human IL-1α; remark: listed apart in the source
recombinant human IL-1β [7] = target: T2, recombinant human IL-1β; remark: listed apart in the source
recombinant human IL-1β [8] = target: T2, recombinant human IL-1β; remark: listed apart in the source

dual-inhibition activity, IL-8 synthesis by MRC-5 cells with both IL-1α and IL-1β present (recombinant human IL-1α [1]): 1.2 nM
neutralizing activity against hIL-1α relative to the chimeric Abs (recombinant human IL-1α [1]): 3 fold
dual-inhibition activity, IL-8 synthesis by MRC-5 cells with both IL-1α and IL-1β present (recombinant human IL-1β [2]): 1.2 nM
neutralizing activity to hIL-1β relative to DVD1-Ig (recombinant human IL-1β [2]): 3 fold
Potency (IC50), MRC-5 bioassay (recombinant human IL-1α [3]): 2.9 nM
Potency (IC50), MRC-5 bioassay (recombinant human IL-1β [4]): 1.6 nM
B1: hIL-1a/bDVD2-Ig (bispecific antibody, human IgG1, kappa)
heavy: not shown
light: NIVLTQSPASLAVSLGQRATISCRASESVDSYGNSYMHWYQQKPGQPPKLLIYLASNLESGVPARFSGSGSRTDFTLTIDPVEADDAATYYCQQNNEDPFTFGSGTKLEIKRADAAPNIQMTQTTSSLSASLGDRVTISCRASQDISNCLNWYQQKPDGTVKLLIYYTSRLHSGVPSRFSGSGSGTDYSLTISNLEQEDIATYFCQQGKTLPYAFGGGTKLEINRTVAAPSVFIFPPSDEQLKSGTASVVCLLNNFYPREAKVQWKVDNALQSGNSQESVTEQDSKDSTYSLSSTLTLSKADYEKHKVYACEVTHQGLSSPVTKSFNRGEC

Potency (IC50), MRC-5 bioassay (recombinant human IL-1α [5]): 0.7 nM
B2: hIL-1a/bDVD3b-Ig (bispecific antibody, human IgG1, kappa)
heavy: not shown
light: ETTVTQSPASLSMAIGEKVTIRCITSTDIDVDMNWYQQKPGEPPKLLISQGNTLRPGVPSRFSSSGSGTDFVFIIENMLSEDVADYYCLQSDNLPLTFGAGTKLELKRTVAAPDIVMTQSQRFMSTSVGDRVSVTCKASQNVGTNIAWYQQKPGQSPRALIYSASYRYSGVPDRFTGSGSGTDFTLTISNVQSVDLAEYFCQQYTRYPLTFGGGTKLEIKRTVAAPSVFIFPPSDEQLKSGTASVVCLLNNFYPREAKVQWKVDNALQSGNSQESVTEQDSKDSTYSLSSTLTLSKADYEKHKVYACEVTHQGLSSPVTKSFNRGEC

Potency (IC50), MRC-5 bioassay (recombinant human IL-1α [3]): 0.67 nM
IC50, inhibition of IL-8 production by MRC-5 cells (recombinant human IL-1α [6]): 0.67 nM
B3: murine anti-hIL-1α mAb 3D12.E3 (antibody, V domains shown)
VH: QIQLVQSGPELKKPGETVKISCKASGYTFRNYGMNWVKQAPGKDLKRMAWINTYTGESTYADDFKGRFAFSLETSASTAYLQINNLKNEDTATYFCARGIYYYGSSYAMDYWGQGTSVTVSS
VL: NIQMTQTTSSLSASLGDRVTISCRASQDISNCLNWYQQKPDGTVKLLIYYTSRLHSGVPSRFSGSGSGTDYSLTISNLEQEDIATYFCQQGKTLPYAFGGGTKLEINR

Potency (IC50), MRC-5 bioassay (recombinant human IL-1α [3]): 0.7 nM
B4: chimeric 3D12.E3 Ab (3D12.E3-VH-hCγ1 / 3D12.E3-VL-hCk) (antibody, V domains shown)
VH: QIQLVQSGPELKKPGETVKISCKASGYTFRNYGMNWVKQAPGKDLKRMAWINTYTGESTYADDFKGRFAFSLETSASTAYLQINNLKNEDTATYFCARGIYYYGSSYAMDYWGQGTSVTVSS
VL: NIQMTQTTSSLSASLGDRVTISCRASQDISNCLNWYQQKPDGTVKLLIYYTSRLHSGVPSRFSGSGSGTDYSLTISNLEQEDIATYFCQQGKTLPYAFGGGTKLEINR

Potency (IC50), MRC-5 bioassay (recombinant human IL-1α [5]): 0.35 nM
Potency (IC50), MRC-5 bioassay (recombinant human IL-1β [7]): 0.5 nM
B5: hIL-1a/bDVD4b-Ig (bispecific antibody, human IgG1, kappa)
heavy: not shown
light: ETTVTQSPASLSMAIGEKVTIRCITSTDIDVDMNWYQQKPGEPPKLLISQGNTLRPGVPSRFSSSGSGTDFVFIIENMLSEDVADYYCLQSDNLPLTFGAGTKLELKRTVAAPSVFIFPPDIVMTQSQRFMSTSVGDRVSVTCKASQNVGTNIAWYQQKPGQSPRALIYSASYRYSGVPDRFTGSGSGTDFTLTISNVQSVDLAEYFCQQYTRYPLTFGGGTKLEIKRTVAAPSVFIFPPSDEQLKSGTASVVCLLNNFYPREAKVQWKVDNALQSGNSQESVTEQDSKDSTYSLSSTLTLSKADYEKHKVYACEVTHQGLSSPVTKSFNRGEC

Potency (IC50), MRC-5 bioassay (recombinant human IL-1α [5]): 1 nM
Potency (IC50), MRC-5 bioassay (recombinant human IL-1β [7]): 0.75 nM
B6: hIL-1a/bDVD6b-Ig (bispecific antibody, human IgG1, kappa)
heavy: not shown
light: QIVLTQSPAIMSASPGEKVTITCSASSSVSYMHWFQQKPGASPKLWIYSTSNLASGVPARFSGSGSGTSYSLTVSRMEAEDAATYYCQQRSTYPYTFGGGTKLEIKRTVAAPSVFIFPPQIVLTQSPALMSASPGEKVTMTCSASSSVNYMYWYQQKPRSSPKPWIYLTSNLASGVPARFSGSGSGTSYSLTISSMEAEDAATYYCQQWNSNPYTFGGGTKLEMKRTVAAPSVFIFPPSDEQLKSGTASVVCLLNNFYPREAKVQWKVDNALQSGNSQESVTEQDSKDSTYSLSSTLTLSKADYEKHKVYACEVTHQGLSSPVTKSFNRGEC

Potency (IC50), MRC-5 bioassay (recombinant human IL-1α [5]): 2.6 nM
Potency (IC50), MRC-5 bioassay (recombinant human IL-1β [7]): 19 nM
B7: hIL-1a/bDVD5a-Ig (bispecific antibody, human IgG1, kappa)
heavy: not shown
light: QIVLTQSPALMSASPGEKVTMTCSASSSVNYMYWYQQKPRSSPKPWIYLTSNLASGVPARFSGSGSGTSYSLTISSMEAEDAATYYCQQWNSNPYTFGGGTKLEMKRTVAAPQIVLTQSPAIMSASPGEKVTITCSASSSVSYMHWFQQKPGASPKLWIYSTSNLASGVPARFSGSGSGTSYSLTVSRMEAEDAATYYCQQRSTYPYTFGGGTKLEIKRTVAAPSVFIFPPSDEQLKSGTASVVCLLNNFYPREAKVQWKVDNALQSGNSQESVTEQDSKDSTYSLSSTLTLSKADYEKHKVYACEVTHQGLSSPVTKSFNRGEC

IC50, MRC-5 bioassay (recombinant human IL-1β [7]): 0.6 nM
IC50, inhibition of IL-8 production by MRC-5 cells (recombinant human IL-1β [8]): 0.53 nM
B8: murine anti-hIL-1β mAb 1B12.4H4 (antibody, V domains shown)
VH: QVHLKESGPGLVAPSQSLSITCTVSGFSLTDYGVSWIRQPPGKGLEWLGLIWGGGDTYYNSPLKSRLSIRKDNSKSQVFLKMNSLQTDDTAVYYCAKQRTLWGYDLYGMDYWGQGTSVTVSS
VL: ETTVTQSPASLSMAIGEKVTIRCITSTDIDVDMNWYQQKPGEPPKLLISQGNTLRPGVPSRFSSSGSGTDFVFIIENMLSEDVADYYCLQSDNLPLTFGAGTKLELKR

Potency (IC50), MRC-5 bioassay (recombinant human IL-1α [5]): 0.35 nM
Potency (IC50), MRC-5 bioassay (recombinant human IL-1β [7]): 10 nM
B9: hIL-1a/bDVD4a-Ig (bispecific antibody, human IgG1, kappa)
heavy: not shown
light: DIVMTQSQRFMSTSVGDRVSVTCKASQNVGTNIAWYQQKPGQSPRALIYSASYRYSGVPDRFTGSGSGTDFTLTISNVQSVDLAEYFCQQYTRYPLTFGGGTKLEIKRTVAAPSVFIFPPETTVTQSPASLSMAIGEKVTIRCITSTDIDVDMNWYQQKPGEPPKLLISQGNTLRPGVPSRFSSSGSGTDFVFIIENMLSEDVADYYCLQSDNLPLTFGAGTKLELKRTVAAPSVFIFPPSDEQLKSGTASVVCLLNNFYPREAKVQWKVDNALQSGNSQESVTEQDSKDSTYSLSSTLTLSKADYEKHKVYACEVTHQGLSSPVTKSFNRGEC

IC50, MRC-5 bioassay (recombinant human IL-1α [5]): 0.24 nM
IC50, inhibition of IL-8 production by MRC-5 cells (recombinant human IL-1α [6]): 0.24 nM
B10: murine anti-hIL-1α mAb 6H3.1A4.3E11 (antibody, V domains shown)
VH: QVQLQQPGAELVRPGASVKLSCKASGYTFTTYWMNWVKQRPEQGLEWIGRIDPYDSETLYSQKFKDTAILTVDKSSSTAYMQLSSLTSEDSAVYYCARYGFDYWGQGTTLTVSS
VL: QIVLTQSPALMSASPGEKVTMTCSASSSVNYMYWYQQKPRSSPKPWIYLTSNLASGVPARFSGSGSGTSYSLTISSMEAEDAATYYCQQWNSNPYTFGGGTKLEMKR

Potency (IC50), MRC-5 bioassay (recombinant human IL-1α [5]): 3.3 nM
Potency (IC50), MRC-5 bioassay (recombinant human IL-1β [7]): 0.25 nM
B11: hIL-1a/bDVD5b-Ig (bispecific antibody, human IgG1, kappa)
heavy: not shown
light: QIVLTQSPAIMSASPGEKVTITCSASSSVSYMHWFQQKPGASPKLWIYSTSNLASGVPARFSGSGSGTSYSLTVSRMEAEDAATYYCQQRSTYPYTFGGGTKLEIKRTVAAPQIVLTQSPALMSASPGEKVTMTCSASSSVNYMYWYQQKPRSSPKPWIYLTSNLASGVPARFSGSGSGTSYSLTISSMEAEDAATYYCQQWNSNPYTFGGGTKLEMKRTVAAPSVFIFPPSDEQLKSGTASVVCLLNNFYPREAKVQWKVDNALQSGNSQESVTEQDSKDSTYSLSSTLTLSKADYEKHKVYACEVTHQGLSSPVTKSFNRGEC

Potency (IC50), MRC-5 bioassay (recombinant human IL-1β [4]): 0.53 nM
B12: chimeric 13F5.G5 Ab (13F5.G5-VH-Cγ1 / 13F5.G5-VL-Cκ) (antibody, V domains shown)
VH: QVQLQQSGAELVRPGSSVKISCKASGYAFSSYWMNWVKQRPGQGLEWIGQIYPGDGDTNYNGKFKGKATLTADKSSSTSYMQLSGLTSEDSAMYFCVRFPTGNDYYAMDYWGQGTSVTVSS
VL: NIVLTQSPASLAVSLGQRATISCRASESVDSYGNSYMHWYQQKPGQPPKLLIYLASNLESGVPARFSGSGSRTDFTLTIDPVEADDAATYYCQQNNEDPFTFGSGTKLEIKR

Potency (IC50), MRC-5 bioassay (recombinant human IL-1α [5]): 0.75 nM
B13: hIL-1a/bDVD3a-Ig (bispecific antibody, human IgG1, kappa)
heavy: not shown
light: DIVMTQSQRFMSTSVGDRVSVTCKASQNVGTNIAWYQQKPGQSPRALIYSASYRYSGVPDRFTGSGSGTDFTLTISNVQSVDLAEYFCQQYTRYPLTFGGGTKLEIKRTVAAPETTVTQSPASLSMAIGEKVTIRCITSTDIDVDMNWYQQKPGEPPKLLISQGNTLRPGVPSRFSSSGSGTDFVFIIENMLSEDVADYYCLQSDNLPLTFGAGTKLELKRTVAAPSVFIFPPSDEQLKSGTASVVCLLNNFYPREAKVQWKVDNALQSGNSQESVTEQDSKDSTYSLSSTLTLSKADYEKHKVYACEVTHQGLSSPVTKSFNRGEC

Potency (IC50), MRC-5 bioassay (recombinant human IL-1α [5]): 2.3 nM
Potency (IC50), MRC-5 bioassay (recombinant human IL-1β [7]): 70 nM
B14: hIL-1a/bDVD6a-Ig (bispecific antibody, human IgG1, kappa)
heavy: not shown
light: QIVLTQSPALMSASPGEKVTMTCSASSSVNYMYWYQQKPRSSPKPWIYLTSNLASGVPARFSGSGSGTSYSLTISSMEAEDAATYYCQQWNSNPYTFGGGTKLEMKRTVAAPSVFIFPPQIVLTQSPAIMSASPGEKVTITCSASSSVSYMHWFQQKPGASPKLWIYSTSNLASGVPARFSGSGSGTSYSLTVSRMEAEDAATYYCQQRSTYPYTFGGGTKLEIKRTVAAPSVFIFPPSDEQLKSGTASVVCLLNNFYPREAKVQWKVDNALQSGNSQESVTEQDSKDSTYSLSSTLTLSKADYEKHKVYACEVTHQGLSSPVTKSFNRGEC

IC50, MRC-5 bioassay (recombinant human IL-1α [5]): 0.33 nM
IC50, inhibition of IL-8 production by MRC-5 cells (recombinant human IL-1α [6]): 0.089 nM
B15: murine anti-hIL-1α mAb 18F4.2C8 (antibody, V domains shown)
VH: EVQLQQSGAELVKPGASVKLSCTASGLNIKDTYMHWLKQRPEQGLEWIGRIDPANGNAKYDPRFLGKATITADTSSNTAYLQLSSLTSEDTAVYYCARGDGNFHFDYWGQGTTLTVSS
VL: DIVMTQSQRFMSTSVGDRVSVTCKASQNVGTNIAWYQQKPGQSPRALIYSASYRYSGVPDRFTGSGSGTDFTLTISNVQSVDLAEYFCQQYTRYPLTFGGGTKLEIKR
